{"source": "paper PMC11790868", "key": {"H3K18DTU nucleosome": {"target": "H3K18DTU nucleosome (UniProt P0C0S8)", "assay": "native gel or EMSA; nucleosomes 100 nM, NAD+ 0 or 150 uM, SIRT7 0-1.6 uM; 10 mM Tris-HCl, 50 mM KCl, 1 mM DTT, pH 7.5; 25 °C, 30 min; 5% TBE native gel run on ice, GelRed"}, "H3K36MTU nucleosome": {"target": "H3K36MTU nucleosome (UniProt P0C0S8)", "assay": "native gel or EMSA; nucleosomes 100 nM, NAD+ 0 or 150 uM, SIRT7 0-1.6 uM; 10 mM Tris-HCl, 50 mM KCl, 1 mM DTT, pH 7.5; 25 °C, 30 min; 5% TBE native gel run on ice, GelRed"}}, "note": "Values joined by “and” are separate entries in the source; they are usually repeats but may differ in a detail not shown here. Equal entries are not always repeated.", "data": [{"substance": "SIRT7 (wild type, full length) (from UniProt Q9NRC8 1-400) (enzyme)", "values": [{"measurement": "stoichiometry N (SIRT7 per nucleosome)", "setting": "H3K18DTU nucleosome", "value": "1 and 2"}, {"measurement": "stoichiometry N (SIRT7 per nucleosome)", "setting": "H3K36MTU nucleosome", "value": "1 and 2"}]}]}
